Legend:
[1] = target: AS15[H33R] monobody, displayed on yeast; assay: flow cytometry on cells
[2] = target: AS27[Y33R] monobody, displayed on yeast; assay: flow cytometry on cells

fold reduction of affinity against AS15 [1]: 4 times
fold reduction of affinity against AS27 [2]: 8 times
Substance: Abl SH2 domain, biotinylated (for yeast display measurements) (from UniProt P00519 112-232) (domain or fragment)
